Data published in the RNAGym collection of RNA variant scans (doi:10.1073/pnas.2313332121).

B1: TPR t1 (parent)
chain: GACCAAUCUGCCCUCAGAGCUCGAGAACAUCUUCGGAUGCAGAGGAGGCAGGCUUCGGUGGCGCGAUAGCGCCAACGUCCUCAACCUCCAAUGCAUCCCACCACAUGAUGAUGCCUGAAGAGCCUUGGUUUUUUG

Variants of: B1
Assay: polymerase ribozyme fitness, log enrichment relative to wild type (log ratio); higher = more active; in vitro selection for triplet polymerase activity
Method in brief: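 Each subunit of a heterodimeric triplet polymerase ribozyme was mutagenized into a library by PCR, transcribed, and subjected to one round of in vitro selection, run in triplicate. Libraries were annealed with a biotinylated primer, the partner subunit and triplets, incubated frozen at −7 °C, and extended constructs were gel-excised, captured on streptavidin beads and recovered by RT-PCR. Input and output libraries were sequenced on Illumina, keeping genotypes with ≥10 input reads and ≥1 read per output. Fitness is log base 2 of genotype enrichment divided by wild-type enrichment, from inverse-variance-weighted replicate averages.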

Variant	polymerase ribozyme fitness (log ratio)
G44U G110A	-2.64
C11U C53U	0.00138
G17A A27C G57C C73A G93U G113C A118C U125A	-7.69
U9C C79A G128C	-2.56
G45A G52U U130G	-1.91
A46U G65C	-7.92
C73U U92G	-2.88
G93A C97U G127C	-2.77
C13A C53U C114U G120A	-3.61
C49U C72G C97U U106A	-0.73
U7C C22U C64U C88U C123U	-2.65
A5G G113A	-0.636
A5U U9G G36A G39A U96G	-5.14
G36U U78C	-1.61
A29G C72G	-1.98
G52U C72A C85A U106A G110U	-3.08
C11G U32A G48U U96A C123A	-5.24
C12G G57C	-0.0296
C88U U116A	-3.45
A50G C73U	0.871
C73A U109C C114G C115A G122U	-7.04

Variant	polymerase ribozyme fitness (log ratio)
A66G G77U C89A	-4.38
C12G U38G G44U U78A	-1.53
U59A C72U A83C	-0.884
G51U C56A C62U U92A C101U	-6.34
A18U G44U	-2.49
C80U C88G C124U	-1.05
C8U A46C G120C	1.49
C22U G60C	-4.82
A46G C72A	0.745
C56A U112C	-0.107
U7G C76U	0.285
C62A U78C U112A U116A	-3.11
C22G G60A	-3.33
A5U A6C A26G G44A U54C A84C C94U	-4.49
C15U G60A A91C	-2.6
C64U C70A A111C C115G G128U	-5.81
A27C C62U	-3.48
G51A C56U	-0.934
C12G U30C C70A	-4.46
C8A C72U U109G	-3.8
C53U G63A U81A	-2.54

Variant	polymerase ribozyme fitness (log ratio)
C20A G48U A50U G120U U132C	-4.56
G52U G63U A119G G120U A121U	-0.023
A27U C72A	-2.61
G10U A29U C70G G113A	-4.17
C12G A75U	0.372
G42U A50C A83G C97G C99U U106A G113U C124A	-7.66
C11U A43U G110U U132A	-3.03
C72U C97U G120A G122A	-1.22
A26U C64U A118G	-3.85
G52A C94A	-1.72
A16U G63U G113U	-5.93
A24G C56U U125G	-2.02
C3U C102U C114G C124G	-4.14
C79U C101G	-1.8
C12A A16G G36U	-4.37
G61U G117C U131C	-3.82
C13U C20U G51A A66G C72U U109A	-6.73
C13G A29G G42A G117U	-6.21
U9A C20G C72U U96G C124U	-3.12
C8A G36A C79U U96G C102U	-2.91
C82U C85A A121U	0.305

Variant	polymerase ribozyme fitness (log ratio)
A6U G48U A105U	-2.38
C34U G42C	-6.44
C11A C12U G25U C56U G69C C98U G110A	-6.12
A5U A119G	0.901
C11A C13U C53A	-1.65
G44A A111U U132A	-3.18
C12G G122A	-0.383
A16C C53A C56A G60A	-4.12
C70U U132C	-0.89
C3G C62U G93U C98U G128C	-2.79
C11G G44A U133G	-1.89
C20A A43U G113C	-5.17
G39A G48A C88A	-1.33
C86A G117U	-4.28
U59A G113U	-2.9
G48A A68G	-2.51
C8G U55G G61C	-0.439
C15U G47A G69C C85A A119U C124U	-3.68
C4U C22G A43U G48U C49U C97U	-4.83
A105C U133A	-2.08
